The nanobody polyreactivity screen of Harvey et al. (2022)

experiment: yeast display, Sf9 membrane polyspecificity reagent, FACS + sequencing; frameworks hold sequencing errors
Summary of the method: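 After 36–48 hours of galactose induction, yeast (Saccharomyces cerevisiae BJ5465) displaying a synthetic nanobody library were stained at 4 °C for 1 hour with 10% biotinylated, detergent-solubilized Sf9 membrane reagent. Streptavidin microbeads enriched the stained cells before FACS sorting into low and high (top ~1%) gates on anti-HA and streptavidin fluorescence. Each clone's polyreactivity label reflects its gate of origin.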

**Q.** Which “polyreactivity (PSR sort gate)” value does the source give for “QVQLVESGGRLVQAGGSLRLSCAASGTFAVYTMGWYRQAPGKERELVAAISSGGSTYYADSVKGRFTISRDNAKNTVYLQMNSLKPEDTAVYYCNKPLSYGYDYWGQGTQVTVSS” here?
**A.** high polyreactivity

**Q.** For “QVQLVESGGRLVQAGGSLRLSCAASGYTFQRYAMGWYRQAPGKERELVAAISSSGGSTYYADSVKGRFTISRDNAKNTVYLQMNSLKPEDTAVFYCAVRFVSAWSRYDYWGQGTQVTVSS”, which “polyreactivity (PSR sort gate)” value is on record?
**A.** high polyreactivity

**Q.** For “QVQLVESGGRLVQAGGSLRLSCAASVSTFRKYAMGWYRQAPGKEREFVAAITWSTGTTYYADSVKGRFTISRDTAKNTVYLQMNSLKPEDTAVYYCAADSQPPHELYESIEHESWGQGTQVTVSS”, which “polyreactivity (PSR sort gate)” value is on record?
**A.** low polyreactivity

**Q.** With “QVQLVESGGRLVQAGGSLRLSCADSGSIFEYYAMGWYRQAPGKEREFVAAISDNGDSTYYADSVKGRFTISRDNAKNTVYLQMNSLKPEDTEVYYCNKTPVDDPPWCYDSWGQGTQVTVSS” as the sequence, how does the “polyreactivity (PSR sort gate)” value read?
**A.** low polyreactivity

**Q.** Which “polyreactivity (PSR sort gate)” value does the source give for “QVQLVESGGRLVQAGGSLRLSCAPSGFIFRFNAMGWYRQPPGKVSELVARIDWSGGSTYYADSVKGRFTISRENAKYTVYFQMNSLKPEDTAVYYCAAERYFEYSECDYWGQGTQVTVSS” here?
**A.** low polyreactivity

**Q.** For “QVQLVESGGRLVQAGGSLRLSGAASGFTFGRNAKGWYRPAPGKERELVASIDWSGGSTYYADSVKGRFTISRDNAKNTFFLQMNSLKPEETAVYYCAVGPNSVGNRSYGFDYWGQGTQVTVSS”, which “polyreactivity (PSR sort gate)” value is on record?
**A.** low polyreactivity

**Q.** Which “polyreactivity (PSR sort gate)” value does the source give for “QVQLVESGGRLVQAGGSLRLSGADSGSIFSSYAMGWNRPAPGKERELVAAISSSGDSTYADSEKGRFTISRDNAKNSVDLQMNSLKPEDTAVYYCAVGGAGSDDYWGQGTQVTVSS” here?
**A.** low polyreactivity

**Q.** Which “polyreactivity (PSR sort gate)” value does the source give for “QVQLVESGGRLVQAGGSLRLSSAASGRTFRTYALGWYRQAPGTEREFVAAISRRSGITYYADSVKGRFTISRDNAKNTVYLQMNSLKPEDTAVYYCAATGYTGYSRYYYWGQGTQVTVSS” here?
**A.** high polyreactivity

**Q.** Which “polyreactivity (PSR sort gate)” value does the source give for “QVQLVESGGRLVQAGGSLRLTCAASGNIFANNAMGWYRQAPGTERELVAAISQSGGNTYYEDSVKGRFTISRDNAKNTVYLQMNSLKPEDTAVYYCNAKTYGYNYDSWGQGTQVTVSS” here?
**A.** low polyreactivity

**Q.** With “QVQLVESGGRLVQAGGSLRLTCASSGRIFRYYAMGWYRQAPGKERQLVAAISSSGGSTYYADSVKGRFTISRDNAKNTVYLQMNSLKPEDTAVYYCAARYHIDTLFYGSRYDYWGQGTQVTVSS” as the sequence, how does the “polyreactivity (PSR sort gate)” value read?
**A.** high polyreactivity

**Q.** Which “polyreactivity (PSR sort gate)” value does the source give for “QVQLVESGGRLVQAGGTLRLSCAASGFIFTPYAMGWYRQAPGKERELVAAITWRGARTYYADSVKGRFTISRDNANNTVYLQMNSLKPEDTAVYYCATTFTGYNKEFGYWGQGTQVTVSS” here?
**A.** high polyreactivity

**Q.** Which “polyreactivity (PSR sort gate)” value does the source give for “QVQLVESGGRLVQAGGTLRLSCAASGRNVGLYAMGWSRQAPGKERELVAAISSTGRTTYADSVKGRFTISRDNAKNNVYLQMNSLIPEVTAVYYCKADARSVCWYYYACLFDYWGQGTQGTVSS” here?
**A.** low polyreactivity

**Q.** For “QVQLVESGGRLVQAGGTLRLSCAASGRTLSNYALGWSRQAPGKERELVAAISSSGSTNYADSVKGRFTISRDNAKNTVYLQMNSLKPEDSAVYYCAAESWFLRWYRYDYWGQGTQVTVSS”, which “polyreactivity (PSR sort gate)” value is on record?
**A.** low polyreactivity

**Q.** Which “polyreactivity (PSR sort gate)” value does the source give for “QVQLVESGGRLVQEGGSLRLRCAASGSIFSGYAMGWSRQAPGKERELVAVITRGGNTNYADSVKGRFTISRDNAKNTVSLQMNSLTPEDTAVYYCAVDLRKSYRHKFDFNYWGQGTQVTVSS” here?
**A.** low polyreactivity

**Q.** Which “polyreactivity (PSR sort gate)” value does the source give for “QVQLVESGGRLVQEGRSLRLSCAASGSIFSRYAMGWYRQAPRKERELVAAITWSGGSTYYADSVKGRFTISRDNAKNNVYLQMNSLKPDDTAVYYCAAVGYAPYNHRYDSWGQGTQVTVSS” here?
**A.** low polyreactivity

**Q.** Which “polyreactivity (PSR sort gate)” value does the source give for “QVQLVESGGRLVQERGSLRLSCAASGFIFGRYAMGWYIQAPGKERELVAAITQSGGSTYYADSVKGRFTISRDNAKNTVYVQMNCLNPEDTAVYYCIAPIAYWRVHYKYGYWGQGTQVTVSS” here?
**A.** low polyreactivity

**Q.** With “QVQLVESGGSLVQAGGSLRLSCAASGRTFGYNGMGWYRQAPGKERELVAAITNDGGNTNYADSVKGRFTISRDNAKNTVYLQMNSLKPEDTAVYYCNADRTQDRNPYTYATFDYWGQGTQVTVSS” as the sequence, how does the “polyreactivity (PSR sort gate)” value read?
**A.** low polyreactivity

**Q.** Which “polyreactivity (PSR sort gate)” value does the source give for “QVQLVESGGSLVQAGGSLRLSCAASGSTLYYNAMGWYRQAPGKERELVAAISWSGGSTYYADSVKGRFTISRDNAKNTVYLQMNSLKPEDTSVYYCAADQSTVLDVGSWGQGTQVTVSS” here?
**A.** low polyreactivity

**Q.** For “QVQLVESGGVLVQAGCSLRLSCAASGSTFYYNAMGWYRQAPRKERELVARISRSGGSTYADSVKGRFTISRDNAKNTVYLQMNSLKPEDTAVYYCYADAYGTPEFTSYAVRYDYWGQGTQVTVSS”, which “polyreactivity (PSR sort gate)” value is on record?
**A.** low polyreactivity

**Q.** With “QVQLVESGGVLVQAGCSLRLSCAAYGFTFASYAMGWYRQAPGKERELVAAISWGTVSTYYADSVKGRFTISRDNAMITVYLQMNSLRREDTAVYFCDAQRYTRLRRHGYWGLGTQVTVSS” as the sequence, how does the “polyreactivity (PSR sort gate)” value read?
**A.** high polyreactivity

**Q.** For “QVQLVESGGVLVQAGGSLPLSCAASGFTFSRYAMGWYRQAPGKEREFVAGISRSGGSTYYADSVKGRFTNTRDNAMNTVSLQMNSLKPEDTAVYYWAKVYPATEAGDYWGQGTQVTVSS”, which “polyreactivity (PSR sort gate)” value is on record?
**A.** high polyreactivity

**Q.** With “QVQLVESGGVLVQAGGSLRLSCAASGFIFSSNAMGWCREAPGKERELVAAITGGGGRTRYADSVKGRFTISRDNAKNTVYLQMNSLKPEDTAVYYCAAEVYSIWWYDYWGQGTQVTVSS” as the sequence, how does the “polyreactivity (PSR sort gate)” value read?
**A.** high polyreactivity

**Q.** For “QVQLVESGGVLVQAGGSLRLSCAASGFIFVRYAMGWYRQAPGKERELVAAITSSDSNTNYADSVKGRFTISRDNAKNTVYLQMNSLNPEDTAVYYCNARIYTRRYVPHYGFNYWGQGTQVTVSS”, which “polyreactivity (PSR sort gate)” value is on record?
**A.** low polyreactivity

**Q.** For “QVQLVESGGVLVQAGGSLRLSCAASGFTFVWYAMGWYRQAPGKERELVAAISRRGTRTYYADSVKGRFTISRDNAKNTVYLQMNSLKPEDTALYYCAASNGYQAVTYDYWGQGTQVTVSS”, which “polyreactivity (PSR sort gate)” value is on record?
**A.** high polyreactivity

**Q.** For “QVQLVESGGVLVQAGGSLRLSCAASGGIFNYYAMGWYRQAPGKERELVAAISASGGSTYYADSVKGRFTISRDNAKNTVYLQMNILKPEDTAVYYCAAGLPYGYGYDYWGQGTQVTVSS”, which “polyreactivity (PSR sort gate)” value is on record?
**A.** low polyreactivity

**Q.** With “QVQLVESGGVLVQAGGSLRLSCAASGITFPDYDMGWYIHATGKERELVAAITYRSGSTYYADSVKGRFTISRDNAKNTVFLQMNCLKREDTAVYYCAADWRTKGYDSLGQGTQVTVSS” as the sequence, how does the “polyreactivity (PSR sort gate)” value read?
**A.** high polyreactivity

**Q.** For “QVQLVESGGVLVQAGGSLRLSCAASGRIFGDNAMGWYRHAPGKERELDADIDSGGRTNYADSVKVRFTISLDNAKNTVYLQMNSLKPEDTAVYYCGRDDIAYLVEYDYWGQGTQVTVSS”, which “polyreactivity (PSR sort gate)” value is on record?
**A.** low polyreactivity

**Q.** Which “polyreactivity (PSR sort gate)” value does the source give for “QVQLVESGGVLVQAGGSLRLSCAASGRIFGENAMGWYRQAPGKEREFVAVISISDASTYYADSVKGRFTISRDNAKNTVYLQMNSLKPEDTAVYYCADDLTDFLYVASDYWGQGTQVTVSS” here?
**A.** low polyreactivity

**Q.** With “QVQLVESGGVLVQAGGSLRLSCAASGRIFLRNVMGWYRQAPGKERELVAAISSSGGRTYYADSVKGRFTISRDNAKNSVYLQMNSLKPEDTAVYYCANLSSSRLPSEMEYWGQGTQVTVSS” as the sequence, how does the “polyreactivity (PSR sort gate)” value read?
**A.** high polyreactivity

**Q.** With “QVQLVESGGVLVQAGGSLRLSCAASGRIFQTYAMGWYRQAPGKERELVAAISSRGRTYYADSVKGRFTISRDNAKITVYLQMNSLKREDTAVYYCAARDWSHRPRGYDYWGQGTQVTVSS” as the sequence, how does the “polyreactivity (PSR sort gate)” value read?
**A.** high polyreactivity

**Q.** For “QVQLVESGGVLVQAGGSLRLSCAASGRIFSAYAMGWYRPAPGKERDLVAAITSVGSTKYADYVKGRFTISRDNAKNTVYLQMNSLKPQDTAVYYCAAEYTRSFYIYYRFGYWGQGTQVTVSS”, which “polyreactivity (PSR sort gate)” value is on record?
**A.** high polyreactivity

**Q.** With “QVQLVESGGVLVQAGGSLRLSCAASGRSFGVYAMGWYRQAPGKEMELVAAISEGGGSTNYADSVKGRFTISRDNAKNTVYLQMNSLKPEDTAVYYCAATYRTGVRRYYSWGQGTQVTVSS” as the sequence, how does the “polyreactivity (PSR sort gate)” value read?
**A.** low polyreactivity

**Q.** For “QVQLVESGGVLVQAGGSLRLSCAASGRTFGVYAMGWYRQAPGKERELVATITSVDRTNYADSVKGRFTISRDNAKNTVYLQMNSLKTEDTAVYYCAAVGRWPLYYYWGQGTQVTVSS”, which “polyreactivity (PSR sort gate)” value is on record?
**A.** high polyreactivity

**Q.** With “QVQLVESGGVLVQAGGSLRLSCAASGRTFRRNAMGWYRQAPGKERELVAGIRSSGGSTYYADSVKGRFTISRDNAKNTVYLQINSLKQEDTAVYYCNAVGRPRYGHGFDHWGQGTQVTVSS” as the sequence, how does the “polyreactivity (PSR sort gate)” value read?
**A.** high polyreactivity

**Q.** With “QVQLVESGGVLVQAGGSLRLSCAASGRTLRWYAKGWYRPAPGKERELVAAINWSGTSTYYADSVKGRFTISRDNAKNTVYLQMNSLKPEDTAVYYCAKRVTWNYDWGQGTQVTVSS” as the sequence, how does the “polyreactivity (PSR sort gate)” value read?
**A.** high polyreactivity

**Q.** With “QVQLVESGGVLVQAGGSLRLSCAASGSIFANNAMGWYRQAPGKERELVATIRSGGTTNYADSVKGRFTISRDNAKNTVYLQMNSLKPEDTAVYYCAVDYVVYADGPLDYWGQGTQVTVSS” as the sequence, how does the “polyreactivity (PSR sort gate)” value read?
**A.** low polyreactivity

**Q.** With “QVQLVESGGVLVQAGGSLRLSCAASGSIFDSNAMGWYRQAPGKERELVAAISWSGSRTYYADSVKGRFTISRDYAKNTVYLQILSLKPEDTAVYYCAALVRRYGKYDYWGQCTQVTVSS” as the sequence, how does the “polyreactivity (PSR sort gate)” value read?
**A.** high polyreactivity

**Q.** With “QVQLVESGGVLVQAGGSLRLSCAASGSIFDTYAMGWYRQAPGKERELVAAITWSGSSTYYADSVKGRFTISRDNAKNTVYLQMNSLKQEDTAVYYCAKDYYVEVTTEYDYWGQGTQVTVSS” as the sequence, how does the “polyreactivity (PSR sort gate)” value read?
**A.** high polyreactivity

**Q.** Which “polyreactivity (PSR sort gate)” value does the source give for “QVQLVESGGVLVQAGGSLRLSCAASGSIFERYDMGWYRQAPGKERELVAAITSAGITYYADSVKGRFTISRDNAKNNVYLQMNSLKPEDTAVYYCAAQGRRGAPYRHVNEGDYWGQGTQVTVSS” here?
**A.** low polyreactivity

**Q.** For “QVQLVESGGVLVQAGGSLRLSCAASGSIFRGYAMGCYRQAPGKERELVAAINTSGGRTYYADSVKGRFTISRDNAKNTVYLQMIRLKPDDTAVYYCATEYYQAKREDYWGQGTQVTVSS”, which “polyreactivity (PSR sort gate)” value is on record?
**A.** high polyreactivity

**Q.** For “QVQLVESGGVLVQAGGSLRLSCAASGSIFSGYSMGWYRQAPGKERELVAAITWNGGSTYYADSVKGRFTISRDNAKNTVYLQMNILKPEDTAVYYCAAERAARFNYWGQGTQVTVSS”, which “polyreactivity (PSR sort gate)” value is on record?
**A.** high polyreactivity
